Columns and labels:
[1] = target: biotinylated human SIRPα allele 1 domain 1 (a1d1) (human) (UniProt P78324); assay: SPR, Biacore T100, biotinylated SIRPα on SA chip, 25 C, 1:1 Langmuir model
[2] = target: biotinylated human SIRPα allele 2 domain 1 (a2d1) (human) (UniProt P78324); assay: as above
Chain of biotinylated human SIRPα allele 2 domain 1 (a2d1) (human) (P78324 other isoform, or with tags, fused parts or gaps): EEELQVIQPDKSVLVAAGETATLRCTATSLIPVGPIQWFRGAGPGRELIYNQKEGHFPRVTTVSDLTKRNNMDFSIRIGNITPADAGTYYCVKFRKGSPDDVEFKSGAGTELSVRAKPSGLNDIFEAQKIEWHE

Chain of biotinylated human SIRPα allele 1 domain 1 (a1d1) (human) (P78324 other isoform, or with tags, fused parts or gaps): as above

Substance: WT CD47 (human CD47 IgSF domain, C15G, C-terminal 8x histidine tag) (from UniProt Q08722 19-135) (ligand)
- Kd [1]: 285 nM
- Kd [2]: 476 nM

— US20180127480A1
